These results are taken from patent US20190367620A1.

The target in one assay is Human FGF1 (human) (UniProt P05230). Put plainly: cell-based or functional assay.
The target of a further assay is Human FGF2 (human) (UniProt P09038). Put plainly: cell-based or functional assay.
Sequence of Human FGF2 (human) (P09038 135-288 limits assumed): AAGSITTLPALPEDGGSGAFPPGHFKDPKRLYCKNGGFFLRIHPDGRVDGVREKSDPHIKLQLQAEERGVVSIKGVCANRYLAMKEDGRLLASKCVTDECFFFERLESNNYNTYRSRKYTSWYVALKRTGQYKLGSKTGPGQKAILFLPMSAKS

Sequence of Human FGF1 (human) (P05230 16-155 limits assumed): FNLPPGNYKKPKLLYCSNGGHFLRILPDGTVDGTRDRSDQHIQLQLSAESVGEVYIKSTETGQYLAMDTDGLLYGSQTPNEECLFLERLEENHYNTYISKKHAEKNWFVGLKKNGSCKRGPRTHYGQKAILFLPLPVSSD

In the assay with Human FGF1 (human), FP-1039 (Fc fusion) returned an IC50, inhibition of P-FGFR1 in NCI-H520 cells, FGF1 stimulated of 50 nM. The IC50, inhibition of P-FGFR1 in NCI-H520 cells, FGF2 stimulated with Human FGF2 (human) was determined as 30 nM.
